Results: patent US20140227324A1

Biological target: mouse IL12Rβ1 (IL12 Receptor Beta 1, transmembrane-containing form) (mouse) (UniProt Q60837)
Test: cell-based or functional assay

Chain of UniProt Q60837 (Q60837 20-738): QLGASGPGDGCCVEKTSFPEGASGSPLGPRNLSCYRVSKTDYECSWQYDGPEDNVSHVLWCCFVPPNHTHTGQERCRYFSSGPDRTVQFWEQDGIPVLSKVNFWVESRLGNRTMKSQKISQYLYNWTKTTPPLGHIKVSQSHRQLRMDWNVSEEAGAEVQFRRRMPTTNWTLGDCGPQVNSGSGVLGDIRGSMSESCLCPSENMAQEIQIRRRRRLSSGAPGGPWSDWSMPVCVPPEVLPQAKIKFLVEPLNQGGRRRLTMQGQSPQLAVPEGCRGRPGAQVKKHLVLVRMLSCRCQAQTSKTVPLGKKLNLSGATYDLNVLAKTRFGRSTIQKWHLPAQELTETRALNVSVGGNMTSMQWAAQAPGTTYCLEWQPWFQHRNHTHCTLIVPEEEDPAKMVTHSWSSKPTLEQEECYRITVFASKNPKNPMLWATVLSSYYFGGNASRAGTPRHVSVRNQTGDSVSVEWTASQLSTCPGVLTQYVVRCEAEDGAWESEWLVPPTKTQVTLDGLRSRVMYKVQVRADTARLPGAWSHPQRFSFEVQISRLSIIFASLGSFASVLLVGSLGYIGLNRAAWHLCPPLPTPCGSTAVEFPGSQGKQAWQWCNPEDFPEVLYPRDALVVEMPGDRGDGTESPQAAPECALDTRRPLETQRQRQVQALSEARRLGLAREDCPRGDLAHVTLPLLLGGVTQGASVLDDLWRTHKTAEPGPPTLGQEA

| Substance | NIH/3T3 migration toward IL12(p40)2, IL12Rβ1ΔTM co-transfected alongside IL12Rβ1 [% increase] | STAT4 activity (GAS-promoter luciferase reporter), IL12Rβ1ΔTM co-transfected alongside IL12Rβ1 and IL12Rβ2 [% increase] |
| --- | --- | --- |
| IL12(p40)2 (ligand) | 50 | – |
| IL12 (ligand) | – | 30 |
